The supplement of paper PMC9112550, “Optimization of the antimicrobial peptide Bac7 by deep mutational scanning” (BMC Biology, 2022)

System: Escherichia coli TOP10
Experiment: shrunken log2 fold change of peptide-encoding DNA abundance (4.5 h post-induction vs induction); higher = less antimicrobial activity (less host growth inhibition)
Details: time post-induction: 4.5 h; library: site-saturation at positions 5, 18, 19, 20
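Also: peptides expressed intracellularly from a pBAD plasmid library in pooled LB shake-flask culture, induced with 0.3% L-arabinose, DNA abundance read by NGS, three biological replicates, DESeq2 with apeglm shrinkage.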

Sequence	shrunken log2 fold change
RRIRTRPPRLPRPRPRPRFIPRP	-0.806
RRIRTRPPRLPRPRPRPRFQPRP	0.177
RRIRTRPPRLPRPRPRPRGMPRP	0.24
RRIRTRPPRLPRPRPRPRGPPRP	1.02
RRIRTRPPRLPRPRPRPRGQPRP	0.411
RRIRTRPPRLPRPRPRPRGWPRP	0.897
RRIRTRPPRLPRPRPRPRHGPRP	0.745
RRIRTRPPRLPRPRPRPRHRPRP	0.0476
RRIRTRPPRLPRPRPRPRHTPRP	-0.16
RRIRTRPPRLPRPRPRPRIGPRP	0.116
RRIRTRPPRLPRPRPRPRKNPRP	0.136
RRIRTRPPRLPRPRPRPRKYPRP	-0.809
RRIRTRPPRLPRPRPRPRLKPRP	0.0991
RRIRTRPPRLPRPRPRPRLNPRP	-0.251
RRIRTRPPRLPRPRPRPRMHPRP	0.0254
RRIRTRPPRLPRPRPRPRMMPRP	1.32
RRIRTRPPRLPRPRPRPRNMPRP	-0.493
RRIRTRPPRLPRPRPRPRQFPRP	-0.0836
RRIRTRPPRLPRPRPRPRQWPRP	-0.054
RRIRTRPPRLPRPRPRPRREPRP	0.351
RRIRTRPPRLPRPRPRPRRLPRP	0.172
RRIRTRPPRLPRPRPRPRSHPRP	0.109
RRIRTRPPRLPRPRPRPRSVPRP	-0.272
RRIRTRPPRLPRPRPRPRTGPRP	0.312
RRIRTRPPRLPRPRPRPRVAPRP	0.258

Sequence	shrunken log2 fold change
RRIRTRPPRLPRPRPRPRWYPRP	-0.288
RRIRTRPPRLPRPRPRPSAFPRP	-0.0245
RRIRTRPPRLPRPRPRPSALPRP	-0.178
RRIRTRPPRLPRPRPRPSANPRP	-0.0622
RRIRTRPPRLPRPRPRPSCIPRP	-0.44
RRIRTRPPRLPRPRPRPSDDPRP	-0.182
RRIRTRPPRLPRPRPRPSDNPRP	-0.697
RRIRTRPPRLPRPRPRPSFMPRP	-0.412
RRIRTRPPRLPRPRPRPSHSPRP	-0.399
RRIRTRPPRLPRPRPRPSHYPRP	-1.32
RRIRTRPPRLPRPRPRPSIWPRP	0.112
RRIRTRPPRLPRPRPRPSLFPRP	-0.248
RRIRTRPPRLPRPRPRPSLWPRP	0.277
RRIRTRPPRLPRPRPRPSNWPRP	-0.281
RRIRTRPPRLPRPRPRPSNYPRP	-1.22
RRIRTRPPRLPRPRPRPSPIPRP	-0.733
RRIRTRPPRLPRPRPRPSQAPRP	0.0983
RRIRTRPPRLPRPRPRPSQKPRP	0.039
RRIRTRPPRLPRPRPRPSQVPRP	-0.2
RRIRTRPPRLPRPRPRPSRQPRP	0.15
RRIRTRPPRLPRPRPRPSSEPRP	-0.0162
RRIRTRPPRLPRPRPRPSSTPRP	-0.604
RRIRTRPPRLPRPRPRPSSWPRP	0.131
RRIRTRPPRLPRPRPRPSVSPRP	-0.386
RRIRTRPPRLPRPRPRPSWDPRP	-0.262

Sequence	shrunken log2 fold change
RRIRTRPPRLPRPRPRPTATPRP	0.286
RRIRTRPPRLPRPRPRPTCLPRP	-0.216
RRIRTRPPRLPRPRPRPTDEPRP	0.491
RRIRTRPPRLPRPRPRPTDNPRP	-0.302
RRIRTRPPRLPRPRPRPTDYPRP	-0.263
RRIRTRPPRLPRPRPRPTEKPRP	0.015
RRIRTRPPRLPRPRPRPTEQPRP	0.303
RRIRTRPPRLPRPRPRPTFCPRP	0.147
RRIRTRPPRLPRPRPRPTFVPRP	-0.262
RRIRTRPPRLPRPRPRPTGCPRP	-0.388
RRIRTRPPRLPRPRPRPTGMPRP	0.13
RRIRTRPPRLPRPRPRPTHHPRP	-0.0136
RRIRTRPPRLPRPRPRPTHSPRP	0.384
RRIRTRPPRLPRPRPRPTIYPRP	-0.409
RRIRTRPPRLPRPRPRPTKDPRP	-0.244
RRIRTRPPRLPRPRPRPTKNPRP	-0.083
RRIRTRPPRLPRPRPRPTKQPRP	-0.0507
RRIRTRPPRLPRPRPRPTLMPRP	-0.142
RRIRTRPPRLPRPRPRPTLPPRP	0.149
RRIRTRPPRLPRPRPRPTLQPRP	0.336
RRIRTRPPRLPRPRPRPTMPPRP	-0.0706
RRIRTRPPRLPRPRPRPTNTPRP	-0.536
RRIRTRPPRLPRPRPRPTPYPRP	-0.298
RRIRTRPPRLPRPRPRPTQNPRP	0.385
RRIRTRPPRLPRPRPRPTRYPRP	0.228

Sequence	shrunken log2 fold change
RRIRTRPPRLPRPRPRPTTNPRP	-0.19
RRIRTRPPRLPRPRPRPTVDPRP	-0.126
RRIRTRPPRLPRPRPRPTVIPRP	-0.17
RRIRTRPPRLPRPRPRPTVVPRP	0.0732
RRIRTRPPRLPRPRPRPTWDPRP	0.478
RRIRTRPPRLPRPRPRPTWMPRP	-0.0339
RRIRTRPPRLPRPRPRPTYKPRP	-0.651
RRIRTRPPRLPRPRPRPVAAPRP	0.389
RRIRTRPPRLPRPRPRPVASPRP	0.0362
RRIRTRPPRLPRPRPRPVCGPRP	0.179
RRIRTRPPRLPRPRPRPVDFPRP	0.231
RRIRTRPPRLPRPRPRPVEAPRP	0.0918
RRIRTRPPRLPRPRPRPVEFPRP	0.0128
RRIRTRPPRLPRPRPRPVEHPRP	0.0387
RRIRTRPPRLPRPRPRPVEWPRP	0.168
RRIRTRPPRLPRPRPRPVFPPRP	-0.339
RRIRTRPPRLPRPRPRPVFQPRP	-0.0322
RRIRTRPPRLPRPRPRPVGHPRP	-0.00107
RRIRTRPPRLPRPRPRPVIFPRP	-0.335
RRIRTRPPRLPRPRPRPVKLPRP	0.0303
RRIRTRPPRLPRPRPRPVLIPRP	0.233
RRIRTRPPRLPRPRPRPVLRPRP	0.11
RRIRTRPPRLPRPRPRPVMHPRP	0.102
RRIRTRPPRLPRPRPRPVMIPRP	-0.126
RRIRTRPPRLPRPRPRPVMRPRP	-0.0406

Sequence	shrunken log2 fold change
RRIRTRPPRLPRPRPRPVNLPRP	-0.0397
RRIRTRPPRLPRPRPRPVPMPRP	-0.299
RRIRTRPPRLPRPRPRPVPYPRP	-0.0764
RRIRTRPPRLPRPRPRPVSNPRP	-0.442
RRIRTRPPRLPRPRPRPVSYPRP	-0.242
RRIRTRPPRLPRPRPRPVTSPRP	-0.0276
RRIRTRPPRLPRPRPRPVWCPRP	-0.113
RRIRTRPPRLPRPRPRPVYAPRP	-0.249
RRIRTRPPRLPRPRPRPWASPRP	-0.068
RRIRTRPPRLPRPRPRPWAVPRP	-0.0894
RRIRTRPPRLPRPRPRPWCCPRP	-0.227
RRIRTRPPRLPRPRPRPWCNPRP	-0.0437
RRIRTRPPRLPRPRPRPWDNPRP	-0.0778
RRIRTRPPRLPRPRPRPWDPPRP	0.102
RRIRTRPPRLPRPRPRPWFPPRP	-0.735
RRIRTRPPRLPRPRPRPWFRPRP	-0.128
RRIRTRPPRLPRPRPRPWHEPRP	0.111
RRIRTRPPRLPRPRPRPWHVPRP	0.0162
RRIRTRPPRLPRPRPRPWIPPRP	-0.2
RRIRTRPPRLPRPRPRPWKFPRP	-0.0178
RRIRTRPPRLPRPRPRPWLPPRP	-0.164
RRIRTRPPRLPRPRPRPWPDPRP	-0.0269
RRIRTRPPRLPRPRPRPWPRPRP	0.116
RRIRTRPPRLPRPRPRPWRIPRP	0.025
RRIRTRPPRLPRPRPRPWSMPRP	-0.36

Sequence	shrunken log2 fold change
RRIRTRPPRLPRPRPRPWTEPRP	0.00497
RRIRTRPPRLPRPRPRPWVPPRP	0.252
RRIRTRPPRLPRPRPRPYASPRP	-0.255
RRIRTRPPRLPRPRPRPYFMPRP	-0.836
RRIRTRPPRLPRPRPRPYGCPRP	-0.00664
RRIRTRPPRLPRPRPRPYHVPRP	-0.0196
RRIRTRPPRLPRPRPRPYKVPRP	-1.32
RRIRTRPPRLPRPRPRPYLLPRP	-0.654
RRIRTRPPRLPRPRPRPYLRPRP	-0.163
RRIRTRPPRLPRPRPRPYMMPRP	0.0264
RRIRTRPPRLPRPRPRPYNRPRP	-0.0176
RRIRTRPPRLPRPRPRPYPQPRP	-0.14
RRIRTRPPRLPRPRPRPYPWPRP	-0.178
RRIRTRPPRLPRPRPRPYQNPRP	-0.3
RRIRTRPPRLPRPRPRPYSCPRP	-0.0718
RRIRTRPPRLPRPRPRPYTEPRP	-0.267
RRIRTRPPRLPRPRPRPYTTPRP	-0.718
RRIRTRPPRLPRPRPRPYWPPRP	-0.424
RRIRTRPPRLPRPRPRPYWTPRP	0.0389
RRIRTRPPRLPRPRPRPYYMPRP	-1.06
RRIRVRPPRLPRPRPRPAAMPRP	0.347
RRIRVRPPRLPRPRPRPACSPRP	-0.0142
RRIRVRPPRLPRPRPRPADKPRP	-0.0503
RRIRVRPPRLPRPRPRPAFVPRP	0.00544
RRIRVRPPRLPRPRPRPAGCPRP	0.459
